One protein from publication PMC6450606, “Purification and biochemical characterization of FrsA protein from Vibrio vulnificus as an esterase” (PLoS ONE, 2019) can be followed below.

The data set concerns the molecule itself. Nature of the data set: SEC; native mass of purified VvFrsA by size exclusion chromatography, buffer and concentration not told. Background: In gel filtration, larger molecules generally elute earlier.

B1: Fermentation-respiration switch protein (FrsA) from Vibrio vulnificus (enzyme, UniProt Q7MN61 1-415, looked up)
chain: MSEEVSKNLSETLFVKHKQAKETSALTQYMPTSQSLLDEIKEKNGFSWYRNLRRLQWVWQGVDPIEQEQVLARIASSKHSRTDEQWLDTVMGYHSGNWAYEWTRLGMEHQKRAGEMTNEAASEALFSASLCYSIAGYPHLKSDNLAIQAQVLANSAYLEAAKKSKYIIKQLEIPFEKGKITAHLHLTNTDKPHPVVIVSAGLDSLQTDMWRLFRDHLAKHDIAMLTVDMPSVGYSSKYPLTEDYSRLHQAVLNELFSIPYVDHHRVGLIGFRFGGNAMVRLSFLEQEKIKACVILGAPIHDIFASPQKLQQMPKMYLDVLASRLGKSVVDIYSLSGQMAAWSLKVQGFLSSRKTKVPILAMSLEGDPVSPYSDNQMVAFFSTYGKAKKISSKTITQGYEQSLDLAIKWLEDELLR
notes: FrsA (fermentation-respiration switch protein) of Vibrio vulnificus; theoretical mass ca. 47 kDa; Gene cloned between NdeI and XhoI of pET-28a; also called VvFrsA; recombinant VvFrsA
By stoichiometry N is commonly meant a count of units in the complex or per binding partner. On to B1, for which the “stoichiometry N” value is 2.
